Results published in US20250003940A1, “BIOSENSOR, BIOSENSOR COMPONENTS, AND USE THEREOF” (VICTORIA LINK LIMITED, priority 2021, published 2025).

Test: Enzyme activity after freeze-drying with stabilisers
Type: physicochemical
Conditions: freeze-dried with different stabilisers, compared with non-freeze-dried standard
Method: FIG. 23A: RcArgZ activity levels after freeze-drying with different additives. RcArgZ was purified and exchanged into the freeze-drying buffers. The buffers contained 50 mM Tris-Cl pH 8.0, 1 mM MgCl2, and one of the stabilisers. The stabilisers were the following: 1 mM mannitol, 40 mg/mL mannitol, 1 mM sucrose, 10 mg/mL sucrose, 1 mM trehalose, 20 mg/mL trehalose, or 20 mg/mL sucrose and 40 mg/mL mannitol. The sample was then snap frozen using liquid nitrogen before putting in a benchtop freeze-dryer. The sample was left drying for 18-24 hours. The activity of the freeze-dried enzymes was tested and compared with the non-freeze-dried standard (in their corresponding storage buffer).
FIG. 23B: HpGS activity levels after freeze-drying with different additives. HpGS was purified and buffer exchanged to the freeze-drying buffers. The buffers contained 50 mM Tris-Cl pH 8.0, 1 mM MgCl2, and the stabilisers. The stabilisers were the following: 1 mM mannitol, 40 mg/mL mannitol, 1 mM sucrose, 10 mg/mL sucrose, 1 mM trehalose, 20 mg/mL trehalose, or 20 mg/mL sucrose and 40 mg/mL mannitol. The sample was then snap frozen using liquid nitrogen before putting in a benchtop freeze-dryer. The sample was left drying for 18-24 hours. The activity of the freeze-dried enzymes was tested and compared with the non-freeze-dried standard (in their corresponding storage buffer). […]

B1: BpsA: Streptomyces lavendulae blue pigment synthetase A, converts glutamine to indigoidine, SEQ ID NO: 1 (protein, UniProt Q1MWN4 1-1282, looked up)
Indigoidine synthase: MTLQETSVLEPTLQGTTTLPGLLAQRVAEHPEAIAVAYRDDKLTFRELASRSAALADYLEHLGVSADDCVGLFVEPSIDLMVGAWGILNAGAAYLPLSPEYPEDRLRYMIENSETKIILAQQRLVSRLRELAPKDVTIVTLRESEAFVRPEGTEAPAARSARPDTLAYVIYTSGSTGKPKGVMIEHRSIVNQLGWLRETYAIDRSKVILQKTPMSFDAAQWEILSPANGATVVMGAPGVYADPEGLIETIVKHNVTTLQCVPTLLQGLIDTEKFPECVSLQQIFSGGEALSRLLAIQTTQEMPGRALINVYGPTETTINSSSFPVDPADLDEGPQSISIGSPVHGTTYHILDKETLKPVGVGEIGELYIGGIQLARGYLHRDDLTAERFLEIELEEGAEPVRLYKTGDLGQWNNDGTVQFAGRADNQVKLRGYRVELDEISLAIENHDWVRNAAVIVKNDGRTGFQNLIACIELSEKEAALMDQGNHGSHHASKKSKLQVKAQLSNPGLRDDAELAARPAFDLEGAEPTPEQRARVFARKTYRFYEGGAVTQADLLGLLGATVTAGYSRKAADLAPAELGQILRWFGQYISEERLLPKYGYASPGALYATQMYFELEGVGGLKPGYYYYQPVRHQLVLISEREATGKATAQIHFIGKKSGIEPVYKNNILEVLEIETGHMVGLFEQILPAYGLDIHDRAYEPAVKDLLDVADEDYYLGTFELVPHAGARDDQAEVYVQTHGGKVAGLPEGQYRYENGELTRFSDDIVLKKHVIAINQSVYQAASFGISVYSRAEEEWLKYITLGKKLQHLMMNGLNLGFMSSGYSSKTGNPLPASRRMDAVLGANGVDSAPMYFFVGGRISDEQIGHEGMREDSVHMRGPAELIRDDLVSFLPDYMIPNRVVVFDRLPLSANGKIDVKALAASDQVNAELVERPFVAPRTETEKEIAAVWEKALRRENASVQDDFFESGGNSLIAVGLVRELNARLGVSLPLQSVLESPTIEKLARRLEREVAQESSRFVRLHAETGKARPVICWPGLGGYPMNLRSLAGEIGLGRSFYGVQSYGINEGETPYETITEMAKKDIEALKEIQPAGPYTLWGYSFGARVAFETAYQLEQAGEKVDNLFLIAPGSPKVRAENGKVWGREASFANRGYTTILFSVFTGTISGPDLDRCLETVTDEASFAEFISELKGIDVDLARRIISVVGQTYEFEYSFHELAERTLQAPISIFKAVGDDYSFLENSSGYSAEPPTVIDLDADHYSLLREDIGELVKHIRYLLGE
activity when freeze-dried: able to retain activity
